Experimental findings from patent publication US12359237 are described below.

Residue numbers refer to the chain shown, from its start.

Data set [1] concerns T1, 4SCSC7_4AAAA7 precursor peptide.
T1 sequence: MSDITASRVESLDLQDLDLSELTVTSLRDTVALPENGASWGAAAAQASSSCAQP

Data set [2] deals with T2, S10A mutant precursor peptide of LazA*.
T2 sequence: T1 sequence with A42S, A43C, A44S, A45C, S48A

Data set [3] has as its system T3, C13A mutant precursor peptide of LazA*.
T3 sequence: T1 sequence with A42S, A43C, A44S, A45C, C51A

In data set [4] the test system is T4, S12A mutant precursor peptide of LazA*.
T4 sequence: T1 sequence with A42S, A43C, A44S, A45C, S50A

Data set [5] concerns T5, S11A mutant precursor peptide of LazA*.
T5 sequence: T1 sequence with A42S, A43C, A44S, A45C, S49A

Consider “LazC (macrocyclase of lactazole biosynthesis, His-Tag-bound recombinant protein)”, for which, in data set [1], the “leader peptide elimination (LC-MS chromatogram of the leader peptide cleaved off through LazC reaction)” value was “Leader peptide elimination was also seen in the 4SCSC7_4AAAA7 precursor peptide at a level equivalent to LazA*”. Further, the “leader peptide cleaved off through LazC reaction (LC-MS chromatogram)” value in data set [2] was “Ser (10) and Cys (13) are also relatively important”; in data set [3] it was “A leader peptide cleaved off was slightly seen in S11A and C13A”; in data set [4], “such a leader peptide was hardly seen in S11A and S12A”; in data set [5], “such a leader peptide was hardly seen in S11A and S12A”.
